Earlier results, collected in publication PMC8002405.

Biological target: Human neonatal Fc receptor (hFcRn) (UniProt P55899+P61769)
Assay: microscale thermophoresis (MST)
Conditions: pH 5.5

KD: 900 nM
Substance: Human IgG1 (wild type)
